Results: paper PMC6114107, “Characterization and validation of Entamoeba histolytica pantothenate kinase as a novel anti-amebic drug target” (International Journal for Parasitology: Drugs and Drug …, 2018)

Key:
Type in all cases: biochemical, Entamoeba histolytica
recombinant EhPanK = test: Regulation of EhPanK by CoA, acetyl CoA and malonyl CoA (double-reciprocal plots); conditions: inhibitor 0, 0.5, 2 mM
From the text: PanK from other organisms was reported to be negatively regulated by allosteric inhibition with CoA, acetyl CoA, and malonyl CoA ([Calder et al., 1999]; [Takagi et al., 2010]; [Vallari et al., 1987]). […] The mechanisms of inhibition by acetyl CoA were not clear but seemed to be the mixed type with respect to ATP and pantothenate (Fig. 3).
Fig. 2 Effect of CoA, acetyl CoA, and malonyl CoA on the pantothenate kinase activities. Relative activities of EhPanK in the presence of various concentrations of inhibitors to those without inhibitors are shown. […] The assays were carried out three times independently, and the results are shown as means ± SEM of triplicates.
Fig. 3 Double-reciprocal plots of the recombinant EhPanK in the presence of CoA (A and B), malonyl CoA (C and D), or acetyl CoA (E and F). The enzymatic activities were determined with various concentrations of ATP and 0.2 mM pantothenate (A, C, and E) or various concentrations of pantothenate and 100 μM ATP (B, D, and F), in the presence of three concentrations of inhibitors (0, 0.5, and 2 mM). Data are shown in means ± SEM of triplicate analyses.

[1] = substrate: CC(C)(CO)[C@@H](O)C(=O)NCCC(=O)O; test: Kinetic parameters of recombinant EhPanK for its substrates; conditions: other: apparent Km at saturating concentration of the other substrate, 37 °C, pH 6, mean ± SEM
Protocol: (§1) PanK and DPCK activities in the cell lysate were measured with coupled assays using ADP Hunter™ Plus Assay kit (DiscoverX, US) according to the manufacturer's instructions. […] Kinetic data were estimated by curve fitting with the Michaelis–Menten equation using GraphPad Prism (GraphPad Software Inc., San Diego, USA). This experiment was repeated three times in triplicate with proteins isolated from two independent extractions, and kinetic values are presented as the means ± S.E. for three independent kinetic assays.
(§2) Table 1 summarizes the apparent Km, Vmax, and Kcat values for EhPanK using pantothenate and ATP as substrates.
(§3) Fig. S5. Optimum pH and temperature (A) and initial rate plots (B, C) of EhPanK. B) The velocity of EhPanK reaction at various pantothenate concentrations in the presence of 25, 50, or 100 μM ATP. C). The velocity of EhPanK reaction at various ATP concentrations in the presence of 8, 64, or 128 μM pantothenate. […] Assays for panes B and C were conducted at 37 °C at pH 6. Data are shown in mean ± SEM of three replicates.

[2] = substrate: Nc1ncnc2c1ncn2[C@@H]1O[C@H](COP(=O)(O)OP(=O)(O)OP(=O)(O)O)[C@@H](O)[C@H]1O; test: as above; conditions: other: apparent Km at saturating concentration of the other substrate, 37 °C, pH 6, mean ± SEM
Protocol: as §1, §2, §3

Molecule	Mechanism of inhibition with respect to ATP (recombinant EhPanK; various ATP, 0.2 mM pantothenate)	Mechanism of inhibition with respect to pantothenate (recombinant EhPanK; various pantothenate, 100 μM ATP)	Km [1] [µM]	Vmax [1] [µmol/min/mg]	kcat [1] [s⁻¹]	kcat/Km [1] [M⁻¹ s⁻¹]	Km [2] [µM]	Vmax [2] [µmol/min/mg]	kcat [2] [s⁻¹]	kcat/Km [2] [M⁻¹ s⁻¹]
CC(=O)SCCNC(=O)CCNC(=O)[C@H](O)C(C)(C)COP(=O)(O)OP(=O)(O)OC[C@H]1O[C@@H](n2cnc3c(N)ncnc32)[C@H](O)[C@@H]1OP(=O)(O)O [acetyl CoA]	mixed type	mixed type	–	–	–	–	–	–	–	–
E. histolytica pantothenate kinase (Entamoeba histolytica HM-1:IMSS) (protein) MSQPSHSIPSKHSVLSNEDIEHDDHITHTFEQYEFTKTQSPLPLNGVRRRTAPLSADMGGTMTKIVFWIPGDTDIDLPKYVEPEESVMSGFDLYPDPVLKVTMNSKGENELCFMKFPTSQIPEFIHYAKTSKLKEIYGIGNLQILNVTGGGAYKFANLLKDEMDLEVRQQDEMRCLVLGVNFLLLCCQEKLCFRFVNKTKLYREVTPEIFPYLLVNVGSGVSILKVTAPEKYERVSGSLIGGGTFWGLCCLLTNYKSFDEMLQAAQYGQHQNVDLYVKDIYGRCYDSVGLAADMMASSFGKIQKVPCGEAKNHYSEADIAQGLMMMVCGSIAHLGFELTKLHHINRIFYTGGFVAHNPVVWEAITTMLTTWSSGSVDANFLEYDGYFGSIGALLLSEYEEELM	–	–	53.2 ± 7.1	2.79	2.11 ± 0.075	39700 ± 1330	41.4 ± 3.9	2.84	2.15 ± 0.153	51800 ± 3670
